Laboratory results from PMC4818781 (EMBO Reports, 2016).
Values joined by “and” are separate entries in the source; they are usually repeats but may differ in a detail not shown here. Equal values may be shown once.

B1: His‐GFP‐spMis18_(C‐term‐α), C‐terminal α‐helical domain of S. pombe Mis18 (domain or fragment, Schizosaccharomyces pombe, UniProt Q9P802 121-194, looked up)
chain: VNPEGLTRYQVDLEMREDIIKLKSFCLSLYEKFELHDETLRSVKETISSLKKPKIEGKEGKKEKARTYSKRTRK
B2: His‐GFP‐spMis18fl, recombinant full‐length S. pombe Mis18 (natural protein, Schizosaccharomyces pombe, UniProt Q9P802 1-194, looked up)
chain: MSQTETSHSGYIDFKKESQPSVFQCKKCFQIVGDSNAWVISHREYLSFTLSDAVENSVRVEDTFKRSDDGLCVYSELSCTRCNEVIGKVYNSTPIYLDDIRDMYTFSMDKLQAYQLGNKTVNPEGLTRYQVDLEMREDIIKLKSFCLSLYEKFELHDETLRSVKETISSLKKPKIEGKEGKKEKARTYSKRTRK
B3: His‐hsMis18α_(77–187), Yippee‐like globular domain of human Mis18α (domain or fragment, UniProt Q9NYP9 77-187, looked up)
chain: EERPLVFLCSGCRRPLGDSLSWVASQEDTNCILLRCVSCNVSVDKEQKLSKREKENGCVLETLCCAGCSLNLGYVYRCTPKNLDYKRDLFCLSVEAIESYVLGSSEKQIVS
B4: His‐spMis18_(1–120), N‐terminal Yippee‐like globular domain of S. pombe Mis18 (domain or fragment, Schizosaccharomyces pombe, UniProt Q9P802 1-120, looked up)
chain: MSQTETSHSGYIDFKKESQPSVFQCKKCFQIVGDSNAWVISHREYLSFTLSDAVENSVRVEDTFKRSDDGLCVYSELSCTRCNEVIGKVYNSTPIYLDDIRDMYTFSMDKLQAYQLGNKT
B5: His‐spMis18ΔC (amino acids 1–168) (domain or fragment, Schizosaccharomyces pombe, UniProt Q9P802 1-168, looked up)
chain: MSQTETSHSGYIDFKKESQPSVFQCKKCFQIVGDSNAWVISHREYLSFTLSDAVENSVRVEDTFKRSDDGLCVYSELSCTRCNEVIGKVYNSTPIYLDDIRDMYTFSMDKLQAYQLGNKTVNPEGLTRYQVDLEMREDIIKLKSFCLSLYEKFELHDETLRSVKETIS

Columns and labels:
[1] = target: the molecule itself; assay: SEC-MALS; room temperature; 100 μl of protein at 1 mg/ml; 50 mM HEPES pH 8, 150 mM NaCl, 5 mM DTT; elution volumes of SEC also told
[2] = target: the molecule itself; assay: SEC-MALS; room temperature; 100 μl of protein at 1 mg/ml; 50 mM HEPES pH 8, 300 mM NaCl, 1 mM TCEP
[3] = target: hsMis18β_(56–183), Yippee‐like globular domain of human Mis18β (human, UniProt O43482 56-183); assay: SEC-MALS; room temperature; 100 μl of protein at 1 mg/ml; 50 mM HEPES pH 8, 150 mM NaCl, 5 mM DTT; elution volumes of SEC also told; settings: both partners purified
[4] = target: the molecule itself; assay: SEC-MALS; room temperature; 100 μl of protein at 1 mg/ml; 50 mM HEPES pH 8, 50 mM NaCl, 5 mM DTT

hsMis18β_(56–183), Yippee‐like globular domain of human Mis18β, sequence (O43482 56-183): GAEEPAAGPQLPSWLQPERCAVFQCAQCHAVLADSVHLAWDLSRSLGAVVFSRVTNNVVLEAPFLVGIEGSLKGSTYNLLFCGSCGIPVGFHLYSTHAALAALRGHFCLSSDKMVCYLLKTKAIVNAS

Row | Binder | stoichiometry N [1] | also measured
1 | B1 | 3 | –
2 | B2 | – | stoichiometry N [2]: 4 and 2
3 | B3 | 2 | stoichiometry N [3]: 1
4 | B4 | 2 | –
5 | B5 | – | stoichiometry N [4]: 2 and 4
